# From patent US20230054300A1 (PARIS SCIENCES ET LETTRES QUARTIER LATIN, published 2023)
# Key:
# [1] = biological target: CLIP-PHloop protein (10xHis-CLIP-tagged glycine receptor β loop) (CLIP tag covalently bound (thioether) to the benzylcytosine at an extremity of the DNA molecule); assay: single-molecule magnetic tweezers; SNAP-gephyrin and CLIP-PHloop attached to the DNA molecule; force cycling FLF=0.01 pN for 13 s / FHF=1.1 pN for 52 s; 19.2 °C; GB buffer [continued]
# Description: HF corresponds to the application of a high force (“High Force”); LF corresponds to the application of a low force (“Low Force”). The test molecules can be either associated (A for “Associated”) or dissociated (D for “Dissociated”).
# [2] = biological target: T1, FKBP12 protein having the sequence of SEQ ID NO: 7, with 4-azido-L-phenylalanine at position 1, conjugated to … (Homo sapiens (Human), UniProt P62942 2-108, 4-azido-L-phenylalanine in place of methionine at position 1; the azide is click-coupled to the DBCO-dT at the 5' end of oligo-Tc (Oligo-Tc2, SEQ ID NO: 5), which is ligated to the double-stranded …); assay: magnetic tweezers, force cycling, FHF=1.4 pN, T=303 K, 500 nM rapamycin
# T1 construct: In the assay it is present as the binary complex with rapamycin (500 nM)
# T1 sequence (P62942 other isoform, or with tags, fused parts or gaps limits assumed): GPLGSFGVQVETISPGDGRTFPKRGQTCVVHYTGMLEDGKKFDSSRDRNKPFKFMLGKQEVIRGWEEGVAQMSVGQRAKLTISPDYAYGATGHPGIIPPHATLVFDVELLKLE
# Description: (§1) At each passage at FLF=0.05 pN for time TLF=13 s, the test molecules associate, then, after passage at FHF=1.4 pN, they separate after a time indicated as t_HF-A. The high force is applied for time THF=155 s. […] C) Temporal monitoring of the extension of the double-stranded DNA molecule when the force is cycled between high value and low value (TS: schematic diagram of the FHF/FLF cycles). At each passage at FLF=0.05 pN for time TLF=14 s the test molecules associate and then, after passage at FHF=6 pN, they separate after a time indicated as t_HF-A. The high force is applied for time THF=125 s. […] The curves are provided for several temperatures: OT=29.1° C.; […]T=25.4° C.; ⋄ T=21.7° C.; x T=19.2° C. […] F) Variation of XD, the distance separating the transition state from the complex during dissociation, as a function of temperature. […] A linear fit in agreement with the Arrhenius-Bell model, ln[kD⁰]=A−ED/kBT, makes it possible to determine ED, the activation energy of the dissociation reaction.
# (§2) Example 10 was performed either at 25° C. or at 30° C. in DB reaction buffer (20 mM K-Hepes pH 7.8, 100 mM KCl, 5 mM MgCl₂, 2 mM DTT, 0.1% Tween-20, 0.1 mg/ml BSA). Measurements were also performed at 19.2° C., 21.7° C., 25.4° C. and 29.1° C. (see FIG. 15E).
# [3] = biological target: T1, FKBP12 protein having the sequence of …; assay: magnetic tweezers, spontaneous fluctuations at constant force FCF=0.04 pN, 25 °C, 500 nM rapamycin; average over several DNA molecules and inversion; no free FRB in solution; FCF=0.04 pN, 25 C
# Experimental: as §2
# [4] = biological target: T1, FKBP12 protein having the sequence of …; assay: magnetic tweezers, force cycling, FHF=1.4 pN, T=298 K, 500 nM rapamycin; kD=1/<τD> averaged over several molecules
# [5] = biological target: T1, FKBP12 protein having the sequence of …; assay: derived as kA=kD/KD; magnetic tweezers, FCF=0.04 pN, 25 °C, 500 nM rapamycin; derived as kA=kD/KD
# Experimental: as §2
# (§3) Said fraction of time spent by the test molecules in associated form is determined according to (Σt_{CF-A})/tₜₒₜₐₗ, where tₜₒₜₐₗ is the total time during which the fluctuations are recorded and analyzed.
# [6] = biological target: T1, FKBP12 protein having the sequence of …; assay: magnetic tweezers, spontaneous fluctuations at FCF=0.04 pN, 25 °C, 500 nM rapamycin, with 0-200 nM free FRB in solution; average over concentrations; 0-200 nM free FRB in solution; averaged over concentrations
# Experimental: as §2, §3
# [7] = biological target: T1, FKBP12 protein having the sequence of …; assay: magnetic tweezers, force cycling, FHF=6 pN, T=303 K, 500 nM rapamycin
# Description: as §1, §2
# CLIP-PHloop protein (10xHis-CLIP-tagged glycine receptor β loop) (CLIP tag covalently bound (thioether) to the benzylcytosine at an extremity of the DNA molecule), sequence (chain, as listed by the source limits assumed): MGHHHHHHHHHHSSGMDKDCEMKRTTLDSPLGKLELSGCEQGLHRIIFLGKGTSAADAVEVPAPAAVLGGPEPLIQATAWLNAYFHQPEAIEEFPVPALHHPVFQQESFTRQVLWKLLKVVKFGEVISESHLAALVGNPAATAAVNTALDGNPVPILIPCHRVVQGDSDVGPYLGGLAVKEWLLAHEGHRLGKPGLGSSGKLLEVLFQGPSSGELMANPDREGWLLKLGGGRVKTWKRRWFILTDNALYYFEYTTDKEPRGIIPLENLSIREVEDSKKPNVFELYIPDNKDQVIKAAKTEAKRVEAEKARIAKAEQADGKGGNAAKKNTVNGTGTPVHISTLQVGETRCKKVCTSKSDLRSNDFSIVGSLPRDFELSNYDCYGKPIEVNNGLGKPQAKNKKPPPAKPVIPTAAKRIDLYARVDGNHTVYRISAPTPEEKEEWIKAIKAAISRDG
binding result [1],koff [2],koff [3],koff [4],kon [5],koff [6],koff [7],Binder
binds,,,,,,,"SNAP-gephyrin rC4 (other, SNAP tag covalently bound (thioether) to the benzylguanine at an extremity of the DNA molecule, also called Gephyrin construct rC4) MRGSHHHHHHGSACELSSGLEVLFQGPHMASMDKDCEMKRTTLDSPLGKLELSGCEQGLHEIKLLGKGTSAADAVEVPAPAAVLGGPEPLMQATAWLNAYFHQPEAIEEFPVPALHHPVFQQESFTRQVLWKLLKVVKFGEVISYQQLAALAGNPAATAAVKTALSGNPVPILIPCHRVVSSSGAVGGYEGGLAVKEWLLAHEGHRLGKPGLGSSGGTMATEGMILTNHDHQIRVGVLTVSDSCFRNLAEDRSGINLKDLVQDPSLLGGTISAYKIVPDEIEEIKETLIDWCDEKELNLILTTGGTGFAPRDVTPEATKEVIEREAPGMALAMLMGSLNVTPLGMLSRPVCGIRGKTLIINLPGSKKGSQECFQFILPALPHAIDLLRDAIVKVKEVHDELEDLPSPPPPLSPPPTTSPHKQTEDKGVQCEEEEEEKKDSGVASTEDSSSSHITAAALAAKIPDSIISRGVQVLPRDTASLSTTPSESPRAQATSRLSTASCPTPKARLPSCSSTYSVSEVQSRCSSKENILRASHSAVDITKVARRHRMSPFPLTSMDKAFITVLEMTPVLGTEIINYRDGMGRVLAQDVYAKDNLPPFPASVKDGYAVRAADGPGDRFIIGESQAGEQPTQTVMPGQVMRVTTGAPIPCGADAVVQVEDTELIRESDDGTEELEVRILVQARPGQDIRPIGHDIKRGECVLAKGTHMGPSEIGLLATVGVTEVEVNKFPVVAVMSTGNELLNPEDDLLPGKIRDSNRSTLLATIQEHGYPTINLGIVGDNPDDLLNALNEGISRADVIITSGGVSMGEKDYLKQVLDIDLHAQIHFGRVFMKPGLPTTFATLDIDGVRKIIFALPGNPVSAVVTCNLFVVPALRKMQGILDPRPTIIKARLSCDVKLDPRPEYHRCILTWHHQEPLPWAQSTGNQMSSRLMSMRSANGLLMLPPKTEQYVELHKGEVVDVMVIGRL"
,0.0484 s⁻¹,0.0341 s⁻¹,0.0322 s⁻¹,4.5e+06 M⁻¹ s⁻¹,0.0327 s⁻¹,0.0649 s⁻¹,"FRB protein (FRB subunit of the mTOR protein complex) having the sequence of SEQ ID NO: 6, with 4-azido-L-phenylalanine at position 2,020, conjugated to an … (other, 4-azido-L-phenylalanine in place of alanine at position 2,020; the azide is click-coupled to the DBCO-dT at the 5' end of oligo-Tc (Oligo-Tc1, SEQ ID NO: 4), which is ligated to the double-stranded DNA molecule, Free FRB added in solution (0-200 nM) is described as identical to the test molecule) GPLGSFILWHEMWHEGLEEASRLYFGERNVKGMFEVLEPLHAMMERGPQTLKETSFNQAYGRDLMEAQEWCRKYMKSGNVKDLTQAWDLYYHVFRRISKQLPQL"
